Data from article PMC2901922.

Key:
Experiment in all cases: EMSA
[1] = biological target: T1, Acr-Link2-λN22 (bacteriophage λ, UniProt P03045 1-22)
T1 chain: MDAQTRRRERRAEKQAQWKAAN

[2] = biological target: T2, λN22 (bacteriophage λ, UniProt P03045 1-22)
T2 chain: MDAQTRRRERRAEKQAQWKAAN

[3] = biological target: T3, λN11 (bacteriophage λ, UniProt P03045 1-11)
T3 chain: MDAQTRRRERR

Measured: binding result

B1: λ boxB 15mer (structured_RNA)
RNA: GCCCUGAAAAAGGGC
binds: [1] | [2] | [3]
